The source of these data is PMC12329711, “(Reverse) Evolution of a Promiscuous Isochorismate Pyruvate Lyase into an Efficient Chorismate Mutase” (Biochemistry, 2025).

What all share (test): purified protein
What all share (conditions): pH 7.5; 30.0 °C

Data set [1] has as its system C=C(O[C@@H]1C=C(C(=O)O)C=C[C@H]1O)C(=O)O. The class given is biochemical, Escherichia coli.
The test system of data set [2] is C=C(O[C@H]1C=CC=C(C(=O)O)[C@@H]1O)C(=O)O.
For data set [3], the system named is C=C(O[C@@H]1C=C(C(=O)O)C=C[C@H]1O)C(=O)O.

As for (Escherichia coli K-12), the Km in data set [1] was 240 µM.

In the case of (Mycobacterium tuberculosis H37Rv), in data set [2], the Km is 200 ± 30 µM and the catalytic efficiency (kcat/Km) is 4.4 ± 0.4 M⁻¹ s⁻¹. For the same substance, in data set [3], the Km worked out at 170 ± 16 µM.

Consider (Pseudomonas aeruginosa PAO1), for which the Km in data set [3] is 41 ± 5 µM.

Usually Km stands for the concentration of substrate that gives half-maximal velocity. One may read the kcat/Km as the turnover number divided by the Michaelis constant.
